Measurements published in patent US20060263802A1 (CRUCELL HOLLAND B V, published 2006).

Key:
Test in all cases: PEPSCAN ELISA, looped 15-mer, 10 ug/ml
[1] = target: looped peptide … (rabies virus strain ERA)
[2] = target: looped peptide … (rabies virus strain ERA); remark: listed apart in the source
[3] = target: looped peptide … (rabies virus strain ERA); remark: listed apart in the source
[4] = target: looped peptide … (rabies virus strain ERA); remark: listed apart in the source
[5] = target: looped peptide … (rabies virus strain ERA); remark: listed apart in the source
[6] = target: looped peptide … (rabies virus strain ERA); remark: listed apart in the source
[7] = target: looped peptide … (rabies virus strain ERA); remark: listed apart in the source
[8] = target: looped peptide … (rabies virus strain ERA); remark: listed apart in the source
[9] = target: looped peptide … (rabies virus strain ERA); remark: listed apart in the source
[10] = target: looped peptide … (rabies virus strain ERA); remark: listed apart in the source
[11] = target: looped peptide … (rabies virus strain ERA); remark: listed apart in the source
[12] = target: looped peptide … (rabies virus strain ERA); remark: listed apart in the source
[13] = target: looped peptide … (rabies virus strain ERA); remark: listed apart in the source
[14] = target: looped peptide … (rabies virus strain ERA); remark: listed apart in the source
[15] = target: looped peptide … (rabies virus strain ERA); remark: listed apart in the source
[16] = target: looped peptide … (rabies virus strain ERA); remark: listed apart in the source
[17] = target: looped peptide … (rabies virus strain ERA); remark: listed apart in the source
[18] = target: looped peptide … (rabies virus strain ERA); remark: listed apart in the source
[19] = target: looped peptide … (rabies virus strain ERA); remark: listed apart in the source
[20] = target: looped peptide … (rabies virus strain ERA); remark: listed apart in the source
[21] = target: looped peptide … (rabies virus strain ERA); remark: listed apart in the source
[22] = target: looped peptide … (rabies virus strain ERA); remark: listed apart in the source
[23] = target: looped peptide … (rabies virus strain ERA); remark: listed apart in the source
[24] = target: looped peptide … (rabies virus strain ERA); remark: listed apart in the source
[25] = target: looped peptide … (rabies virus strain ERA); remark: listed apart in the source
[26] = target: looped peptide … (rabies virus strain ERA); remark: listed apart in the source
[27] = target: looped peptide … (rabies virus strain ERA); remark: listed apart in the source
[28] = target: looped peptide … (rabies virus strain ERA); remark: listed apart in the source
[29] = target: looped peptide … (rabies virus strain ERA); remark: listed apart in the source
[30] = target: looped peptide … (rabies virus strain ERA); remark: listed apart in the source
[31] = target: looped peptide … (rabies virus strain ERA); remark: listed apart in the source
[32] = target: looped peptide … (rabies virus strain ERA); remark: listed apart in the source
[33] = target: looped peptide … (rabies virus strain ERA); remark: listed apart in the source
[34] = target: looped peptide … (rabies virus strain ERA); remark: listed apart in the source
[35] = target: looped peptide … (rabies virus strain ERA); remark: listed apart in the source
[36] = target: looped peptide … (rabies virus strain ERA); remark: listed apart in the source
[37] = target: looped peptide … (rabies virus strain ERA); remark: listed apart in the source
[38] = target: looped peptide … (rabies virus strain ERA); remark: listed apart in the source
[39] = target: looped peptide … (rabies virus strain ERA); remark: listed apart in the source
[40] = target: looped peptide … (rabies virus strain ERA); remark: listed apart in the source
[41] = target: looped peptide … (rabies virus strain ERA); remark: listed apart in the source
[42] = target: looped peptide … (rabies virus strain ERA); remark: listed apart in the source
[43] = target: looped peptide … (rabies virus strain ERA); remark: listed apart in the source
[44] = target: looped peptide … (rabies virus strain ERA); remark: listed apart in the source
[45] = target: looped peptide … (rabies virus strain ERA); remark: listed apart in the source
[46] = target: looped peptide … (rabies virus strain ERA); remark: listed apart in the source
[47] = target: looped peptide … (rabies virus strain ERA); remark: listed apart in the source
[48] = target: looped peptide … (rabies virus strain ERA); remark: listed apart in the source
[49] = target: looped peptide … (rabies virus strain ERA); remark: listed apart in the source
[50] = target: looped peptide … (rabies virus strain ERA); remark: listed apart in the source
[51] = target: looped peptide … (rabies virus strain ERA); remark: listed apart in the source
[52] = target: looped peptide … (rabies virus strain ERA); remark: listed apart in the source
[53] = target: looped peptide … (rabies virus strain ERA); remark: listed apart in the source
[54] = target: looped peptide … (rabies virus strain ERA); remark: listed apart in the source
[55] = target: looped peptide … (rabies virus strain ERA); remark: listed apart in the source
[56] = target: looped peptide … (rabies virus strain ERA); remark: listed apart in the source
[57] = target: looped peptide … (rabies virus strain ERA); remark: listed apart in the source
[58] = target: looped peptide … (rabies virus strain ERA); remark: listed apart in the source
[59] = target: looped peptide … (rabies virus strain ERA); remark: listed apart in the source
[60] = target: looped peptide … (rabies virus strain ERA); remark: listed apart in the source
[61] = target: looped peptide … (rabies virus strain ERA); remark: listed apart in the source
[62] = target: looped peptide … (rabies virus strain ERA); remark: listed apart in the source
[63] = target: looped peptide … (rabies virus strain ERA); remark: listed apart in the source
[64] = target: looped peptide … (rabies virus strain ERA); remark: listed apart in the source
[65] = target: looped peptide … (rabies virus strain ERA); remark: listed apart in the source
[66] = target: looped peptide … (rabies virus strain ERA); remark: listed apart in the source
[67] = target: looped peptide … (rabies virus strain ERA); remark: listed apart in the source

B1: human monoclonal antibody CRJB (antibody, V domains shown)
VH: QITLKETGPTLVKPTQTLTLTCTFSGFSLSTSGVGVGWIRQPPGKALEWVTLIYWDDDKRYSPSLENRVTIRKDTSKNQVALTMTNMDPLDTGTYYCAHRQHISSFPWFDSWGQGTLVTVSS
VL: SYVLTQPPSVSVAPGKTARINCGGNNIEYRSVHWYQQKSGQAPVAVIYDNSDRPSGIPERFSGSKSGNTATLTISRVEAGDEADYYCQVWDISSDVVFGGGTKLTVLG
With B1 the OD value [1] was 104, the OD value [2] was 58 and the OD value [3] was 68. The OD value [4] was 82, the OD value [5] was 77 and the OD value [6] was 79. The OD value [7] was 79, the OD value [8] was 66 and the OD value [9] was 83. The OD value [10] was 94, the OD value [11] was 104 and the OD value [12] was 89. It also gave an OD value [13] of 86, an OD value [14] of 96 and an OD value [15] of 27. The OD value [16] was 64, the OD value [17] was 79 and the OD value [18] was 106. It also gave an OD value [19] of 97, an OD value [20] of 89 and an OD value [21] of 57. For the same binder, the OD value [22] was 27, the OD value [23] was 80 and the OD value [24] was 34. The OD value [25] was 72, the OD value [26] was 83 and the OD value [27] was 68. It also gave an OD value [28] of 101, an OD value [29] of 85 and an OD value [30] of 82. It also gave an OD value [31] of 82, an OD value [32] of 2 and an OD value [33] of 85. It also gave an OD value [34] of 123, an OD value [35] of 111 and an OD value [36] of 123. For the same binder, the OD value [37] was 94, the OD value [38] was 79 and the OD value [39] was 78. For the same binder, the OD value [40] was 83, the OD value [41] was 98 and the OD value [42] was 80. It also gave an OD value [43] of 73, an OD value [44] of 71 and an OD value [45] of 88. For the same binder, the OD value [46] was 82, the OD value [47] was 54 and the OD value [48] was 70. For the same binder, the OD value [49] was 76, the OD value [50] was 78 and the OD value [51] was 71. The OD value [52] was 104, the OD value [53] was 91 and the OD value [54] was 79. For the same binder, the OD value [55] was 105, the OD value [56] was 62 and the OD value [57] was 72. It also gave an OD value [58] of 89, an OD value [59] of 61 and an OD value [60] of 89. For the same binder, the OD value [61] was 74, the OD value [62] was 84 and the OD value [63] was 100. For the same binder, the OD value [64] was 93, the OD value [65] was 58 and the OD value [66] was 72. For the same binder, the OD value [67] was 72.
